{"source": "patent US20200283483A1", "about": "(TECHNISCHE UNIVERSITAET MUENCHEN, published 2020)", "binders": {"B1": {"name": "peptide #30 c(*fRGDA*A) (peptide)", "peptide": "cyclo([dNMeF]RGDA[NMeA])", "notes": "scaffold NMe(1,6)"}}, "key": {"human αvβ3-integrin": {"molecular_target": "T1, human αvβ3-integrin (human, UniProt P06756 31-992; P05106 27-718)", "T1 construct": "soluble integrin bought from R&D; also called integrin αvβ3", "T1 sequence (P06756 31-992 limits assumed, chain 1 of 2)": "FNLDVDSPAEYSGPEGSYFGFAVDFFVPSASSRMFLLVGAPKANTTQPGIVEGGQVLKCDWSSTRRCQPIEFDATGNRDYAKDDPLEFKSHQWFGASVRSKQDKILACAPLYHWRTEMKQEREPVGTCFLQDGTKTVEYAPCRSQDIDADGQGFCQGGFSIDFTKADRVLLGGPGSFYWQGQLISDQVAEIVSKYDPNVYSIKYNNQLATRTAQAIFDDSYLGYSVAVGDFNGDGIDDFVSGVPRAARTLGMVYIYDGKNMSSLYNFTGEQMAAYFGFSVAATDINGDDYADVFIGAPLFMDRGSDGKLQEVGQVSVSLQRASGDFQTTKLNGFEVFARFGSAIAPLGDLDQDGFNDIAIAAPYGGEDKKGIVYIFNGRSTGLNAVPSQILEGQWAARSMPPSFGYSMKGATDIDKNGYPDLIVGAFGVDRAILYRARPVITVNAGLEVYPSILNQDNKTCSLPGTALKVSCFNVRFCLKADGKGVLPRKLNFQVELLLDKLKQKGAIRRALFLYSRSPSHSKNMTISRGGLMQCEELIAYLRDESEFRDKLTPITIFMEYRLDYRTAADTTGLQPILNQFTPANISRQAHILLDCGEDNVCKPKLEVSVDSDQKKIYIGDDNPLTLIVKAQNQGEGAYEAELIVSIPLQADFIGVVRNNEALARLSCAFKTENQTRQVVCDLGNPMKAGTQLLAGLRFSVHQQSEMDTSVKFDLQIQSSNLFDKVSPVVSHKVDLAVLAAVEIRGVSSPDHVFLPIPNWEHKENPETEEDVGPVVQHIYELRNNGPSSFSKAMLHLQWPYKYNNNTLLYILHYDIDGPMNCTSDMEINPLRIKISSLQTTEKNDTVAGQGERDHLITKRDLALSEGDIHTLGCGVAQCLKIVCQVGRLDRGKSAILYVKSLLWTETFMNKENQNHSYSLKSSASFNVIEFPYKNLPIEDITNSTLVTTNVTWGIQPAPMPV", "T1 sequence (P05106 27-718 limits assumed, chain 2 of 2)": "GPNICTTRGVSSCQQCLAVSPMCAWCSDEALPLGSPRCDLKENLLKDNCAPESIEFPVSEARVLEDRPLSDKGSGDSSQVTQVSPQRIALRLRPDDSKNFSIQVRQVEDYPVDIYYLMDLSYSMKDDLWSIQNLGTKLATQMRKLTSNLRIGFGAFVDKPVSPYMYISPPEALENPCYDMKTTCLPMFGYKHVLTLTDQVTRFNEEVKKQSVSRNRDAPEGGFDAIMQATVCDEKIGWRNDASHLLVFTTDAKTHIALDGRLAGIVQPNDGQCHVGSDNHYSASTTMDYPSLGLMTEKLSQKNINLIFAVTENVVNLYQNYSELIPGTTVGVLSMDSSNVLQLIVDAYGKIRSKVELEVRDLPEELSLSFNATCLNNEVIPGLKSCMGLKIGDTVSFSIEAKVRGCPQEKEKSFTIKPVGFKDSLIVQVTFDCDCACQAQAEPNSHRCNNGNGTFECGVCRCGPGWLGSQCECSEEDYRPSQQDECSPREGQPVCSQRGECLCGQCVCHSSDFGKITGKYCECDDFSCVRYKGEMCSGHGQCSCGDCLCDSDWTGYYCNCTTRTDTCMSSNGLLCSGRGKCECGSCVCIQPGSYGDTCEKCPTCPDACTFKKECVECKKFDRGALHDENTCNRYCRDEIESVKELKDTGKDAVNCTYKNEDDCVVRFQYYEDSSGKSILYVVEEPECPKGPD", "experiment": "solid-phase competition ELISA, soluble αvβ3 on coated vitronectin"}, "human αvβ5-integrin": {"molecular_target": "T2, human αvβ5-integrin (human, UniProt P06756 31-992; P18084 24-719, limits assumed)", "T2 construct": "soluble integrin bought from Millipore", "T2 sequence (P06756 31-992 limits assumed, chain 1 of 2)": "as the sequence (P06756 31-992 limits assumed, chain 1 of 2) above", "T2 sequence (P18084 24-719 limits assumed, chain 2 of 2)": "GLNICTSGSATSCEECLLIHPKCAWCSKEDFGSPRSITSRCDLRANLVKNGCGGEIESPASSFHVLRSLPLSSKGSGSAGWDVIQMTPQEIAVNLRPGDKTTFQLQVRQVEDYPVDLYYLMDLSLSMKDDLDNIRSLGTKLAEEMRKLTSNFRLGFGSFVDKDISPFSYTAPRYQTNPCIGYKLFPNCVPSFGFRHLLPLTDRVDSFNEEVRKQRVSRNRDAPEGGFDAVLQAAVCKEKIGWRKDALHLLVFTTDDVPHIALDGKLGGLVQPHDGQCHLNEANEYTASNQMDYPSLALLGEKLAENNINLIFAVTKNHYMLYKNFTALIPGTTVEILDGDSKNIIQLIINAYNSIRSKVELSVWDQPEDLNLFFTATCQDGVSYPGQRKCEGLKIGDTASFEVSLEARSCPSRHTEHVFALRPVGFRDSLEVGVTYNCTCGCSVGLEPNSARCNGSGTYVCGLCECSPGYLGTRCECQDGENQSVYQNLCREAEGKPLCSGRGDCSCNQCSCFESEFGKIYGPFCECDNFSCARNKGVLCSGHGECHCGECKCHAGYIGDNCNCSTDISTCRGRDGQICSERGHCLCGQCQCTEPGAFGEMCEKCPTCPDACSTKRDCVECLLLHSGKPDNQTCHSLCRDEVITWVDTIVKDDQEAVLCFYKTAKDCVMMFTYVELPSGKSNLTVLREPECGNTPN", "experiment": "solid-phase competition ELISA, soluble αvβ5 on coated vitronectin"}, "human αvβ6-Integrin": {"molecular_target": "T3, human αvβ6-Integrin (human, UniProt P06756 31-992; P18564 22-707)", "T3 construct": "soluble integrin bought from R&D", "T3 sequence (P06756 31-992 limits assumed, chain 1 of 2)": "as the sequence (P06756 31-992 limits assumed, chain 1 of 2) above", "T3 sequence (P18564 22-707 limits assumed, chain 2 of 2)": "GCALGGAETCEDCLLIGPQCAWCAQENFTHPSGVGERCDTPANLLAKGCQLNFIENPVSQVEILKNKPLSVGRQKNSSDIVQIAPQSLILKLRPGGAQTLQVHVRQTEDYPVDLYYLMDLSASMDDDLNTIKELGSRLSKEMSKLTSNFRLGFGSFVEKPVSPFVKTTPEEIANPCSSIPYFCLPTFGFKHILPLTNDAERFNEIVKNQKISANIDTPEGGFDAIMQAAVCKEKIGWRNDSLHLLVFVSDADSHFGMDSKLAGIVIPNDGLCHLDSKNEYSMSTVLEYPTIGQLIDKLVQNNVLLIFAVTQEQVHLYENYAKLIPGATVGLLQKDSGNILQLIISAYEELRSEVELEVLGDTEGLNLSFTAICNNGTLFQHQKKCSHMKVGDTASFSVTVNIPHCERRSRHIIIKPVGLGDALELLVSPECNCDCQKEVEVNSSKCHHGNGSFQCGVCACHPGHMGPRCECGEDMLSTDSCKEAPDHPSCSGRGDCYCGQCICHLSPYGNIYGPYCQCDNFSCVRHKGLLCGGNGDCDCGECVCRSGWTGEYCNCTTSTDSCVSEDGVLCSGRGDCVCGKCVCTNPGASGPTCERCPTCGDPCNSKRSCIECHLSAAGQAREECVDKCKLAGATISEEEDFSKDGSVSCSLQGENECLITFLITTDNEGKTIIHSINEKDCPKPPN", "experiment": "solid-phase competition ELISA, soluble αvβ6 on coated LAP (TGF-β)"}}, "note": "Square brackets hold non-standard residues; d marks the D form. dNMeF = CN[C@H](Cc1ccccc1)C(=O)O; NMeA = CN[C@@H](C)C(=O)O", "data": [{"binder": "B1", "values": [{"measurement": "IC50", "setting": "human αvβ3-integrin", "result": 0.6, "unit": "nM"}, {"measurement": "IC50", "setting": "human αvβ5-integrin", "result": 145, "unit": "nM"}, {"measurement": "IC50", "setting": "human αvβ6-Integrin", "result": 120, "unit": "nM"}]}]}
